Measured values from patent US5639597A, “Cell-free receptor binding assays, the production and use thereof” (Behringwerke Aktiengesellschaft, priority 1990, dated 1997).

Experiments:
[1] = biological target: T1, TNFRFc (extra-cellular portion of the 80 kD form of the human TNF receptor fused to Fc of human IgG1) (Homo sapiens, UniProt P20333); assay: Cell-free TNF binding assay, competition of ligands with TNF-alpha-biotin; conditions: 200 ng/ml TNFRFc for coating, 20 ng/ml TNF-alpha-biotin, FIG. 8; for effect on binding of TNF-alpha-biotin to TNFRFc: concentrations used
T1 construct: made in house
Protocol: (§1) The assay plate was washed five times with PBS containing 0.05% Tween 20 and then incubated with 275 μl of PBS containing 5% skim milk powder at room temperature for 60 min and then washed as above. Then a "checkerboard titration" was initially carried out in order to determine a suitable combination of receptor and ligand concentrations for the design of the assay. […] After washing as above, incubation with 100 μl of streptavidin-peroxidase (Amersham; 1:250 in DMEM/FCS) was carried out at room temperature for 30 min and then washed as above. The bound peroxidase was detected by the color produced in 100 μl of tetramethylbenzidine substrate solution (Behringwerke). After incubation at room temperature for 30 min, the extinction at 450 nm was measured.

[2] = biological target: T2, GM-CSFRFc (extracellular domain of the human GM-CSF receptor fused to Fc of human IgG1) (Homo sapiens, UniProt P15509); assay: Cell-free GM-CSF binding assay, competition of ligands with GM-CSF-biotin; conditions: 1000 ng/ml GM-CSFRFc for coating, 150 ng/ml GM-CSF-biotin, concentrations used; FIG. 14
T2 construct: made in house; host or cells: COS cells (transient; supernatants used)
Protocol: as §1, with “ELISA plates (Nunc, type B) were coated overnight at 4° C. with 100 μl of an affinity-purified rabbit serum against the CH2 domain of human IgG (Dakopatts). The concentration was 10 μg/ml in PBS (137 mM NaCl, 2.7 mM KCl, 6.1 mM Na2 HPO4, 3.9 mM KH2 PO4, 0.5 mM MgCl2, 0.1 mM CaCl2, pH 7.0). The assay” for “The assay”
Transient expression of pGM-CSFRFc in COS cells was carried out. To do this, COS cells were transfected with pGM-CSFRFc with the aid of DEAE-dextran (EP-A 0325 262).

TNFRFc (human) = assay: competition with TNF-alpha-biotin (20 ng/ml) for plate-bound TNFRFc (200 ng/ml for coating), ELISA format
[3] = biological target: T3, IL-4RFc (extracellular portion of the human receptor for IL-4 fused to Fc of human IgG1) (Homo sapiens, UniProt P24394); assay: Cell-free IL-4 binding assay, competition of ligands with IL-4-biotin; conditions: 300 ng/ml IL-4-biotin, various concentrations of competitor; FIG. 3
T3 construct: It is composed of the extracellular portion of the human receptor for IL-4
Protocol: as §1, with “ELISA plates (Nunc, type B) were coated overnight at 4° C. with 100 μl of an affinity-purified rabbit serum against the CH2 domain of human IgG (Dakopatts). The concentration was 10 μg/ml in PBS (137 mM NaCl, 2.7 mM KCl, 6.1 mM Na2 HPO4, 3.9 mM KH2 PO4, 0.5 mM MgCl2, 0.1 mM CaCl2, pH 7.0). The assay” for “The assay”

TNF-alpha-biotin = assay: soluble TNFRFc competing with plate-bound TNFRFc for TNF-alpha-biotin, ELISA format
IL-4-biotin = biological target: T4, IL-4-biotin (Homo sapiens, UniProt P05112); assay: Detection of soluble IL-4 receptor in the cell-free binding assay (competition for IL-4-biotin); conditions: plate coated with 300 ng/ml IL-4RFc; FIG. 4
T4 sequence (P05112 25-153): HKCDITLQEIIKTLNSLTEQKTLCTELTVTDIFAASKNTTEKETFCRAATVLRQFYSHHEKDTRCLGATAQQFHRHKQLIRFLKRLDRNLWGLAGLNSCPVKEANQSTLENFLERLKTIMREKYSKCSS
Protocol: as §1, with “ELISA plates (Nunc, type B) were coated overnight at 4° C. with 100 μl of an affinity-purified rabbit serum against the CH2 domain of human IgG (Dakopatts). The concentration was 10 μg/ml in PBS (137 mM NaCl, 2.7 mM KCl, 6.1 mM Na2 HPO4, 3.9 mM KH2 PO4, 0.5 mM MgCl2, 0.1 mM CaCl2, pH 7.0). The assay” for “The assay”

Molecule: TNF-alpha
- inhibition of binding of TNF-alpha-biotin, IC50 [1]: 5 ng/mL
- inhibition of binding of GM-CSF-biotin to GM-CSFRFc [2]: do not inhibit

Molecule: TNF-alpha (ligand)
- IC50 (TNFRFc (human)): 5 ng/mL

Molecule: IL-1-alpha: interleukin ligand used for competition (specificity control)
- effect on binding of TNF-alpha-biotin to TNFRFc [1]: no effect
- competition with IL-4-biotin for binding to IL-4RFc [3]: no binding activity
- inhibition of binding of GM-CSF-biotin to GM-CSFRFc [2]: do not inhibit

Molecule: IL-4: interleukin 4, unlabelled ligand used for competition
- effect on binding of TNF-alpha-biotin to TNFRFc [1]: no effect
- inhibition of binding of GM-CSF-biotin to GM-CSFRFc [2]: do not inhibit

Molecule: GM-CSF: granulocyte/macrophage colony-stimulating factor, unlabelled ligand
- effect on binding of TNF-alpha-biotin to TNFRFc [1]: no effect

Molecule: TNFRFc (Fc fusion)
- IC50 (TNF-alpha-biotin): 35 ng/mL

B1: G-CSF: ligand used for competition (specificity control) (protein, UniProt P09919 31-207, looked up)
Granulocyte …: TPLGPASSLPQSFLLKCLEQVRKIQGDGAALQEKLVSECATYKLCHPEELVLLGHSLGIPWAPLSSCPSQALQLAGCLSQLHSGLFLYQGLLQALEGISPELGPTLDTLQLDVADFATTIWQQMEELGMAPALQPTQGAMPAFASAFQRRAGGVLVASHLQSFLEVSYRVLRHLAQP
- inhibition of binding of GM-CSF-biotin to GM-CSFRFc [2]: do not inhibit

B2: IL-7RFc: an Fc fusion of the human IL-7 receptor (protein)
chain: ESGYAQNGDLEDAELDDYSFSCYSQLEVNGSQHSLTCAFEDPDVNITNLEFEICGALVEVKCLNFRKLQEIYFIETKKFLLIGKSNICVKVGEKSLTCKKIDLTTIVKPEAPFDLSVVYREGANDFVVTFNTSHLQKKYVKVLMHDVAYRQEKDENKWTHVNLSSTKLTLLQRKLQPAAMYEIKVRSIPDHYFKGFWSEWSPSYYFRTPEINNSSGEMD
- binding activity of soluble receptor/Fc fusion protein in IL-4-biotin competition assay (IL-4-biotin): no binding activity
